In PMC9482650, “Quantitative fragmentomics allow affinity mapping of interactomes” (Nature Communications, 2022):

Tests used:
Experiment in all cases: holdup assay
Parameters in all cases: key: below the threshold = too weak to quantify, mostly under pKd 3.1 to 4
APBA2_1, Q99767 = target: T1, APBA2_1, Q99767; conditions: plain residues with an end cap or a label only (N-terminal biotin on a linker: ado-ado)
T1 sequence (Q99767 563-664, limits assumed, looked up): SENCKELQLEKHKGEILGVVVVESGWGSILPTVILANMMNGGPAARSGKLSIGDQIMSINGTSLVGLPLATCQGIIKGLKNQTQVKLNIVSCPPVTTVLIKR

ARHGEF11, O15085 = target: T2, ARHGEF11, O15085
T2 sequence (O15085 42-136, limits assumed, looked up): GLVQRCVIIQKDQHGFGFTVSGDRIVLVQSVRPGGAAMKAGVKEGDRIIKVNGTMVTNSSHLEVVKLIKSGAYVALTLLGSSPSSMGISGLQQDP

ARHGEF12, Q9NZN5-2 = conditions: plain residues with an end cap or a label only (N-terminal biotin on a linker: ado-ado)
Sequence of ARHGEF12, Q9NZN5-2 (Q9NZN5 other isoform, or with tags, fused parts or gaps): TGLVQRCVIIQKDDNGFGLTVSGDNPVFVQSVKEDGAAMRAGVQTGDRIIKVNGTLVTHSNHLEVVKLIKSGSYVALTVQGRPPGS

CASK, O14936 = conditions: plain residues with an end cap or a label only (N-terminal biotin on a linker: ado-ado)
Sequence of CASK, O14936 (O14936 487-570): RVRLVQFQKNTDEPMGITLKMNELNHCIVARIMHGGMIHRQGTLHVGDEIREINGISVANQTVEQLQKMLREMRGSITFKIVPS

DLG1_2, Q12959 = conditions: plain residues with an end cap or a label only (N-terminal biotin on a linker: ado-ado)
Sequence of DLG1_2, Q12959 (Q12959 314-412): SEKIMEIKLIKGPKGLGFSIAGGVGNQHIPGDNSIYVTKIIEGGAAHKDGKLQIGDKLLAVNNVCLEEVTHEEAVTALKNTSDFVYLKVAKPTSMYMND

DLG1_3, Q12959 = conditions: plain residues with an end cap or a label only (N-terminal biotin on a linker: ado-ado)
Sequence of DLG1_3, Q12959 (Q12959 457-571): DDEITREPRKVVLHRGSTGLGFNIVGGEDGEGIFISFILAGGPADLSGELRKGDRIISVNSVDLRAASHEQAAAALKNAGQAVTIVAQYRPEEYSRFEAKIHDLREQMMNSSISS

DLG2_2, Q15700 = conditions: plain residues with an end cap or a label only (N-terminal biotin on a linker: ado-ado)
Sequence of DLG2_2, Q15700 (Q15700 189-283): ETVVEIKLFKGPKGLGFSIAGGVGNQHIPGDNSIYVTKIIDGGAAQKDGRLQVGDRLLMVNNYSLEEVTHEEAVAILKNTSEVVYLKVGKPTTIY

DLG3_1, Q92796 = target: T3, DLG3_1, Q92796; conditions: plain residues with an end cap or a label only (N-terminal biotin on a linker: ado-ado)
T3 sequence (Q92796 125-227, limits assumed, looked up): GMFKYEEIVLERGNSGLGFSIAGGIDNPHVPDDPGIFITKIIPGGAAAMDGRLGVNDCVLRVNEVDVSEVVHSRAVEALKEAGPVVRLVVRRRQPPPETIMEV

DLG3_3, Q92796 = target: T4, DLG3_3, Q92796; conditions: plain residues with an end cap or a label only (N-terminal biotin on a linker: ado-ado)
T4 sequence (Q92796 374-475, limits assumed, looked up): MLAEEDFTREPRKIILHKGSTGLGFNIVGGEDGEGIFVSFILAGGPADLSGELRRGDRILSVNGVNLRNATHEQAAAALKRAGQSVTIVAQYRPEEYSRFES

DLG4_1, P78352 = conditions: plain residues with an end cap or a label only (N-terminal biotin on a linker: ado-ado)
Sequence of DLG4_1, P78352 (P78352 62-152): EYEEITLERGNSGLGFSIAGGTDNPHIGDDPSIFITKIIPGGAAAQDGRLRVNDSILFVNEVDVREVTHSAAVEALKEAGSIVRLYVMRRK

DLG4_2, P78352 = conditions: plain residues with an end cap or a label only (N-terminal biotin on a linker: ado-ado)
Sequence of DLG4_2, P78352 (P78352 155-259): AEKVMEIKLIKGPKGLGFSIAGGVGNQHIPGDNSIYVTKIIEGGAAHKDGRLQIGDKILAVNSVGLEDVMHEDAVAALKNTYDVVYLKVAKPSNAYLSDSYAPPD

FRMPD2_1, Q68DX3 = conditions: plain residues with an end cap or a label only (N-terminal biotin on a linker: ado-ado)
Sequence of FRMPD2_1, Q68DX3 (Q68DX3 770-861): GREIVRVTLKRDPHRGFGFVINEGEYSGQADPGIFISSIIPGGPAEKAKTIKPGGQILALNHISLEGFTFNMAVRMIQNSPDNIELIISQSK

GRIP2_5, Q9C0E4 = conditions: plain residues with an end cap or a label only (N-terminal biotin on a linker: ado-ado)
Sequence of GRIP2_5, Q9C0E4 (Q9C0E4 544-642): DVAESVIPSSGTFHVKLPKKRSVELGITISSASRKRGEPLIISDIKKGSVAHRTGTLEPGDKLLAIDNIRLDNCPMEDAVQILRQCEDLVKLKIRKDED

GRIP2_6, Q9C0E4 = conditions: plain residues with an end cap or a label only (N-terminal biotin on a linker: ado-ado)
Sequence of GRIP2_6, Q9C0E4 (Q9C0E4 648-740): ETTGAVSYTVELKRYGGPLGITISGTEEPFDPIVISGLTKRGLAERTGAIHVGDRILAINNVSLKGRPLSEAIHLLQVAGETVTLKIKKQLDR

HTRA2, O43464 = conditions: plain residues with an end cap or a label only (N-terminal biotin on a linker: ado-ado)
Sequence of HTRA2, O43464 (O43464 355-458): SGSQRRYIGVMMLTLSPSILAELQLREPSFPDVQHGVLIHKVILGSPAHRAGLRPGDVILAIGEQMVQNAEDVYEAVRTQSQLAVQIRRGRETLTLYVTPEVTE

IL16_4, Q14005 = conditions: plain residues with an end cap or a label only (N-terminal biotin on a linker: ado-ado)
Sequence of IL16_4, Q14005 (Q14005 1229-1329): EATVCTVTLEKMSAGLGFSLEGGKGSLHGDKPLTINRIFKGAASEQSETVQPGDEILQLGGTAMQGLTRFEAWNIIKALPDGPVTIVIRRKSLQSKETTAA

Inadl_4, Q8NI35 = conditions: plain residues with an end cap or a label only (N-terminal biotin on a linker: ado-ado)
Sequence of Inadl_4, Q8NI35 (Q8NI35 547-651): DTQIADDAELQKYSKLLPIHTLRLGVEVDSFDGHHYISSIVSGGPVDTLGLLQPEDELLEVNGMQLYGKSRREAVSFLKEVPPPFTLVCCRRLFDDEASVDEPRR

Inadl_8, Q8NI35 = conditions: plain residues with an end cap or a label only (N-terminal biotin on a linker: ado-ado)
Sequence of Inadl_8, Q8NI35 (Q8NI35 1425-1530): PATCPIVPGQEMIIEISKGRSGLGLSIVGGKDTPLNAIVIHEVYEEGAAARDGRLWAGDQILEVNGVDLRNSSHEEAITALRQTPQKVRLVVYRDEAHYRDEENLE

Inadl_9, Q8NI35 = conditions: plain residues with an end cap or a label only (N-terminal biotin on a linker: ado-ado)
Sequence of Inadl_9, Q8NI35 (Q8NI35 1530-1615): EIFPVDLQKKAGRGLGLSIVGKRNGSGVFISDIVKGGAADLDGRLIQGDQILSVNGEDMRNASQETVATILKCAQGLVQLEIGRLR

MAGI2_2, Q86UL8 = conditions: plain residues with an end cap or a label only (N-terminal biotin on a linker: ado-ado)
Sequence of MAGI2_2, Q86UL8 (Q86UL8 410-522): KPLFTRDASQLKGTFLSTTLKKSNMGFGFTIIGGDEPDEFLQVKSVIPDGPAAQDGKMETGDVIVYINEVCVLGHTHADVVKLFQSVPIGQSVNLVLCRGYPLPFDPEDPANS

MAGI2_4, Q86UL8 = conditions: plain residues with an end cap or a label only (N-terminal biotin on a linker: ado-ado)
Sequence of MAGI2_4, Q86UL8 (Q86UL8 772-865): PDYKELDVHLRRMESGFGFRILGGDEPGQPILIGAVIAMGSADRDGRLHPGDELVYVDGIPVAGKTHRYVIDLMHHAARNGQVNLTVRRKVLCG

MAGI3_2, Q5TCQ9 = conditions: plain residues with an end cap or a label only (N-terminal biotin on a linker: ado-ado)
Sequence of MAGI3_2, Q5TCQ9 (Q5TCQ9 398-503): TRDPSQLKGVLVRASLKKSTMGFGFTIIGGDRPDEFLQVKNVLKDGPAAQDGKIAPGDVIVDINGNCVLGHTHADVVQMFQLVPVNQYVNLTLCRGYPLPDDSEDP

MAST2, Q6P0Q8 = conditions: plain residues with an end cap or a label only (N-terminal biotin on a linker: ado-ado)
Sequence of MAST2, Q6P0Q8 (Q6P0Q8 1099-1202): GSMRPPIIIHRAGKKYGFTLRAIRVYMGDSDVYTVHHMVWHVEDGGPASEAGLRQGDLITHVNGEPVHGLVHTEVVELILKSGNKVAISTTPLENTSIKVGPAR

MPDZ_10, O75970 = target: T5, MPDZ_10, O75970; conditions: plain residues with an end cap or a label only (N-terminal biotin on a linker: ado-ado)
T5 sequence (O75970 1624-1722, limits assumed, looked up): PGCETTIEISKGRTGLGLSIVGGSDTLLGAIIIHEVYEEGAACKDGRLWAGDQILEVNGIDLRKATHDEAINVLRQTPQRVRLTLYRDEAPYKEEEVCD

NHERF3_3, Q5T2W1 = target: T6, NHERF3_3, Q5T2W1; conditions: plain residues with an end cap or a label only (N-terminal biotin on a linker: ado-ado)
T6 sequence (Q5T2W1 238-333, limits assumed, looked up): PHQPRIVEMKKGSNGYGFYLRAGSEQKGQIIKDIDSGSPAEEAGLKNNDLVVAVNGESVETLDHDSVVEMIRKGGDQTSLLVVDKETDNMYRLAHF

NHERF4_1, Q86UT5-2 = conditions: plain residues with an end cap or a label only (N-terminal biotin on a linker: ado-ado)
Sequence of NHERF4_1, Q86UT5-2 (Q86UT5 other isoform, or with tags, fused parts or gaps): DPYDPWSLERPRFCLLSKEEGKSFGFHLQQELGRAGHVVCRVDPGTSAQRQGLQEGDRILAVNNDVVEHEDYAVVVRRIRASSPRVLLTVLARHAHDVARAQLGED

NHERF4_4, Q86UT5 = conditions: plain residues with an end cap or a label only (N-terminal biotin on a linker: ado-ado)
Sequence of NHERF4_4, Q86UT5 (Q86UT5 464-550): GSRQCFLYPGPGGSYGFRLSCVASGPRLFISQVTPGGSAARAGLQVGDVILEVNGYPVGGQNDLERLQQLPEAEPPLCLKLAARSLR

PDZRN4_1, Q6ZMN7 = conditions: plain residues with an end cap or a label only (N-terminal biotin on a linker: ado-ado)
Sequence of PDZRN4_1, Q6ZMN7 (Q6ZMN7 213-318): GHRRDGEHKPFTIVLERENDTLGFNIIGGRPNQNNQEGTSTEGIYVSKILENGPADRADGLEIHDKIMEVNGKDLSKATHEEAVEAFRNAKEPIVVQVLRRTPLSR

PTPN3, P26045 = conditions: plain residues with an end cap or a label only (N-terminal biotin on a linker: ado-ado)
Sequence of PTPN3, P26045 (P26045 505-587): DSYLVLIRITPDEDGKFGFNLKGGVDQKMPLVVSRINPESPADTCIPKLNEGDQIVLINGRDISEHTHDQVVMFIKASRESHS

SHANK1, Q9Y566 = target: T7, SHANK1, Q9Y566; conditions: plain residues with an end cap or a label only (N-terminal biotin on a linker: ado-ado)
T7 sequence (Q9Y566 658-767, limits assumed, looked up): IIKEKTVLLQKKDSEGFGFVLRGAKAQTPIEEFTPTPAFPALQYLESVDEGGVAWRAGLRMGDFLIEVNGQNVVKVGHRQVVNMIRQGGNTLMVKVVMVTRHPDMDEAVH

SNTA1, Q13424 = target: T8, SNTA1, Q13424
T8 sequence (Q13424 82-180, limits assumed, looked up): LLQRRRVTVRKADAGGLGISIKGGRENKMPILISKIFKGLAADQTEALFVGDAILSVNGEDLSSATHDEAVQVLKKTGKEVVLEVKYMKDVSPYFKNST

SNTG1, Q9NSN8 = target: T9, SNTG1, Q9NSN8; conditions: plain residues with an end cap or a label only (N-terminal biotin on a linker: ado-ado)
T9 sequence (Q9NSN8 52-150, limits assumed, looked up): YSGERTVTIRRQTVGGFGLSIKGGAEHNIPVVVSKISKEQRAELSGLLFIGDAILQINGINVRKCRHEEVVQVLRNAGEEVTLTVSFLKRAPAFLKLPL

SNX27, Q96L92 = conditions: plain residues with an end cap or a label only (N-terminal biotin on a linker: ado-ado)
TIAM2, Q8IVF5 = target: T10, TIAM2, Q8IVF5; conditions: plain residues with an end cap or a label only (N-terminal biotin on a linker: ado-ado)
T10 sequence (Q8IVF5 885-986, limits assumed, looked up): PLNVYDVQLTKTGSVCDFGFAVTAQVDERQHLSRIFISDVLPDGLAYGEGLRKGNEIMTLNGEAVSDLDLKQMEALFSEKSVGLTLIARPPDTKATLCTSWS

TJP1_2, Q07157 = conditions: plain residues with an end cap or a label only (N-terminal biotin on a linker: ado-ado)
Sequence of TJP1_2, Q07157 (Q07157 181-274): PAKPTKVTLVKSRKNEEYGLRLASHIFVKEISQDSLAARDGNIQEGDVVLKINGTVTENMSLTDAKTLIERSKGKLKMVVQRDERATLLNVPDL

TJP1_3, Q07157 = conditions: plain residues with an end cap or a label only (N-terminal biotin on a linker: ado-ado)
Sequence of TJP1_3, Q07157 (Q07157 416-512): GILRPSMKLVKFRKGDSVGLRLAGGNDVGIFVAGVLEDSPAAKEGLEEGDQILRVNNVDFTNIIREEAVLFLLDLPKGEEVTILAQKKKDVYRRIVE

TX1BP3, O14907 = target: T11, TX1BP3, O14907; conditions: plain residues with an end cap or a label only (N-terminal biotin on a linker: ado-ado)
T11 sequence (O14907 10-122, limits assumed, looked up): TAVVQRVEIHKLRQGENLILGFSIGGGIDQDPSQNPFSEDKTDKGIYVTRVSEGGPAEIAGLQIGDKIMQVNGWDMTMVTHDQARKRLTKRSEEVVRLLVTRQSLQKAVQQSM

APBA1_2, Q02410 = target: T12, APBA1_2, Q02410; conditions: plain residues with an end cap or a label only (N-terminal biotin on a linker: ttds)
T12 sequence (Q02410 742-832, limits assumed, looked up): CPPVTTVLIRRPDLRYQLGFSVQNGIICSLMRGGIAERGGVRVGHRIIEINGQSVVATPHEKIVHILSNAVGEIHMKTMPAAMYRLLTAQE

ARHGAP21, Q5T5U3 = target: T13, ARHGAP21, Q5T5U3; conditions: plain residues with an end cap or a label only (N-terminal biotin on a linker: ttds)
T13 sequence (Q5T5U3 45-169, limits assumed, looked up): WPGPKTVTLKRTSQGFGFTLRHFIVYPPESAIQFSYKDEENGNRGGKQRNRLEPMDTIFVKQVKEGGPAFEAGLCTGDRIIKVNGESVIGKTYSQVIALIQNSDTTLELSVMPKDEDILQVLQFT

FRMPD3, Q5JV73 = conditions: plain residues with an end cap or a label only (N-terminal biotin on a linker: ttds)
Sequence of FRMPD3, Q5JV73 (Q5JV73 12-100): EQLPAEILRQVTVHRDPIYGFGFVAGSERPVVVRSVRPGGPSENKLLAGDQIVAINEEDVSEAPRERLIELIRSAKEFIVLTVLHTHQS

GIPC2, Q8TF65 = conditions: plain residues with an end cap or a label only (N-terminal biotin on a linker: ttds)
Sequence of GIPC2, Q8TF65 (Q8TF65 112-203): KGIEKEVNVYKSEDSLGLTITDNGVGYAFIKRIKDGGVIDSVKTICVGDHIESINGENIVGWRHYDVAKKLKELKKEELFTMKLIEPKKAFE

GRID2IP_2, A4D2P6 = conditions: plain residues with an end cap or a label only (N-terminal biotin on a linker: ttds)
Sequence of GRID2IP_2, A4D2P6 (A4D2P6 272-370): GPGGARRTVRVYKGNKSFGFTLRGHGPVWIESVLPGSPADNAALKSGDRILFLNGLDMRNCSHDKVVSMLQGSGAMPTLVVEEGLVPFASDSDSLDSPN

Inadl_1, Q8NI35 = conditions: plain residues with an end cap or a label only (N-terminal biotin on a linker: ttds)
Sequence of Inadl_1, Q8NI35 (Q8NI35 113-229): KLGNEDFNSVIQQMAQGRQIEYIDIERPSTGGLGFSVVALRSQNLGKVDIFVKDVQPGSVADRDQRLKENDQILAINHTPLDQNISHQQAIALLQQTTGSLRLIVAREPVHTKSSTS

LRRC7, Q96NW7 = target: T14, LRRC7, Q96NW7; conditions: plain residues with an end cap or a label only (N-terminal biotin on a linker: ttds)
T14 sequence (Q96NW7 1440-1537, limits assumed, looked up): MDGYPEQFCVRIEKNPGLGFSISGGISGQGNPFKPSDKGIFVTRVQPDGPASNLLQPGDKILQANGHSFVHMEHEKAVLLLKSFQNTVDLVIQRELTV

PARD3B_1, Q8TEW8 = target: T15, PARD3B_1, Q8TEW8; conditions: plain residues with an end cap or a label only (N-terminal biotin on a linker: ttds)
T15 sequence (Q8TEW8 196-299, limits assumed, looked up): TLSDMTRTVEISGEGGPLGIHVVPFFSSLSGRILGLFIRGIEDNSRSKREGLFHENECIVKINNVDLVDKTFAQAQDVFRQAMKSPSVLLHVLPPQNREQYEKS

PDZD2_2, O15018 = target: T16, PDZD2_2, O15018; conditions: plain residues with an end cap or a label only (N-terminal biotin on a linker: ttds)
T16 sequence (O15018 329-429, limits assumed, looked up): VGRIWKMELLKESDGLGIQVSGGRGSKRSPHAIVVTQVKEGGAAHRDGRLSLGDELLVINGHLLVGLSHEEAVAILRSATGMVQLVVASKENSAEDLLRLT

SYNJ2BP, P57105 = target: T17, SYNJ2BP, P57105; conditions: plain residues with an end cap or a label only (N-terminal biotin on a linker: ttds)
T17 sequence (P57105 8-110, limits assumed, looked up): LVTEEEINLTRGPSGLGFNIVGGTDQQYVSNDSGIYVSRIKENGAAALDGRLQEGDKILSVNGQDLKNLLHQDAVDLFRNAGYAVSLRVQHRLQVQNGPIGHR

[1] = plain residues with an end cap or a label only (N-terminal biotin on a linker: ado-ado)
[2] = plain residues with an end cap or a label only (N-terminal biotin on a linker: ttds)

B1: TRIM29, Q14134 (peptide)
chain: KSGKQTMLVV
APBA2_1, Q99767
  pKd: 3.5
ARHGEF11, O15085; [1]
  pKd: 3.89
ARHGEF12, Q9NZN5-2
  pKd: 3.68
CASK, O14936
  pKd: 3.48
DLG1_2, Q12959
  pKd: 3.67
DLG1_3, Q12959
  pKd: 3.69
DLG2_2, Q15700
  pKd: 3.48
DLG3_1, Q92796
  pKd: 3.63
DLG3_3, Q92796
  pKd: 3.81
DLG4_1, P78352
  pKd: 3.56
DLG4_2, P78352
  pKd: 3.79
FRMPD2_1, Q68DX3
  pKd: 3.47
GRIP2_5, Q9C0E4
  pKd: 3.59
GRIP2_6, Q9C0E4
  pKd: 3.55
HTRA2, O43464
  pKd: 3.68
IL16_4, Q14005
  pKd: 3.65
Inadl_4, Q8NI35
  pKd: 3.49
Inadl_8, Q8NI35
  pKd: 3.69
Inadl_9, Q8NI35
  pKd: 3.49
MAGI2_2, Q86UL8
  pKd: 3.51
MAGI2_4, Q86UL8
  pKd: 3.55
MAGI3_2, Q5TCQ9
  pKd: 3.5
MAST2, Q6P0Q8
  pKd: 3.62
MPDZ_10, O75970
  pKd: 3.48
NHERF3_3, Q5T2W1
  pKd: 3.75
NHERF4_1, Q86UT5-2
  pKd: 3.6
NHERF4_4, Q86UT5
  pKd: 3.8
PDZRN4_1, Q6ZMN7
  pKd: 3.68
PTPN3, P26045
  pKd: 3.71
SHANK1, Q9Y566
  pKd: 3.52
SNTA1, Q13424; [1]
  pKd: 3.49
SNTG1, Q9NSN8
  pKd: 3.5
SNX27, Q96L92
  pKd: 3.8
TIAM2, Q8IVF5
  pKd: 3.64
TJP1_2, Q07157
  pKd: 3.88
TJP1_3, Q07157
  pKd: 3.61
TX1BP3, O14907
  pKd: 3.88

B2: ARHGEF7, Q14155 (peptide)
chain: NDPAWDETNL
APBA1_2, Q02410
  pKd: 3.5
ARHGAP21, Q5T5U3
  pKd: 3.82
ARHGEF11, O15085; [2]
  pKd: 3.69
FRMPD3, Q5JV73
  pKd: 3.65
GIPC2, Q8TF65
  pKd: 3.61
GRID2IP_2, A4D2P6
  pKd: 3.63
Inadl_1, Q8NI35
  pKd: 3.51
LRRC7, Q96NW7
  pKd: 3.49
PARD3B_1, Q8TEW8
  pKd: 3.54
PDZD2_2, O15018
  pKd: 3.82
SNTA1, Q13424; [2]
  pKd: 3.88
SYNJ2BP, P57105
  pKd: 3.8
